B1: Mitogen-activated protein kinase kinase kinase 1 (Rattus norvegicus (Rat)), Q62925 (parent)
chain: MAAAAGDRASSSGFPGAAAASPEAGGGGGALQGSGAPAAGAGLLRETGSAGRERADWRRQQLRKVRSVELDQLPEQPLFLTASPPCPSTSPSPEPADAAAGASGFQPAAGPPPPGAASRCGSHSAELAAARDSGARSPAGAEPPSAAAPSGREMENKETLKGLHKMDDRPEERMIREKLKATCMPAWKHEWLERRNRRGPVVVKPIPIKGDGSEMSNLAAELQGEGQAGSAAPAPKGRRSPSPGSSPSGRSGKPESPGVRRKRVSPVPFQSGRITPPRRAPSPDGFSPYSPEETSRRVNKVMRARLYLLQQIGPNSFLIGGDSPDNKYRVFIGPQNCSCGRGTFCIHLLFVMLRVFQLEPSDPMLWRKTLKNFEVESLFQKYHSRRSSRIKAPSRNTIQKFVSRMSNCHTLSSSSTSTSSSENSIKDEEEQMCPICLLGMLDEESLTVCEDGCRNKLHHHCMSIWAEECRRNREPLICPLCRSKWRSHDFYSHELSSPVDSPTSLRGVQQPSSPQQPVAGSQRRNQESNFNLTHYGTQQIPPAYKDLAEPWIQAFGMELVGCLFSRNWNVREMALRRLSHDVSGALLLANGESTGTSGGGSGGSLSAGAASGSSQPSISGDVVEAFCSVLSIVCADPVYKVYVAALKTLRAMLVYTPCHSLAERIKLQRLLRPVVDTILVKCADANSRTSQLSISTLLELCKGQAGELAVGREILKAGSIGVGGVDYVLSCILGNQAESNNWQELLGRLCLIDRLLLEISAEFYPHIVSTDVSQAEPVEIRYKKLLSLLAFALQSIDNSHSMVGKLSRRIYLSSARMVTTVPPLFSKLVTMLSASGSSHFARMRRRLMAIADEVEIAEVIQLGSEDTLDGQQDSSQALAPPRYPESSSLEHTAHVEKTGKGLKATRLSASSEDISDRLAGVSVGLPSSATTEQPKPTVQTKGRPHSQCLNSSPLSPPQLMFPAISAPCSSAPSVPAGSVTDASKHRPRAFVPCKIPSASPQTQRKFSLQFQRTCSENRDSEKLSPVFTQSRPPPSSNIHRAKASRPVPGSTSKLGDASKNSMTLDLNSASQCDDSFGSGSNSGSAVIPSEETAFTPAEDKCRLDVNPELNSSIEDLLEASMPSSDTTVTFKSEVAVLSPEKAESDDTYKDDVNHNQKCKEKMEAEEEEALAIAMAMSASQDALPIVPQLQVENGEDIIIIQQDTPETLPGHTKANEPYREDTEWLKGQQIGLGAFSSCYQAQDVGTGTLMAVKQVTYVRNTSSEQEEVVEALREEIRMMSHLNHPNIIRMLGATCEKSNYNLFIEWMAGASVAHLLSKYGAFKESVVINYTEQLLRGLSYLHENQIIHRDVKGANLLIDSTGQRLRIADFGAAARLASKGTGAGEFQGQLLGTIAFMAPEVLRGQQYGRSCDVWSVGCAIIEMACAKPPWNAEKHSNHLALIFKIASATTAPSIPSHLSPGLRDVALRCLELQPQDRPPSRELLKHPVFRTTW

Variants of: B1
Settings: with ube2n_human UBE2N

Row | effect of a mutation on the interaction | Variant
1 | disrupting interaction | L438A;M440A

Source: IntAct's records for PubMed 25260751
